{"source": "patent US7098025B1", "about": "“Human peroxisome proliferator activated receptor gamma (pparγ) gene regulatory sequences and uses therefor” (Ligand Pharmaceuticals Incorporated, priority 1997, dated 2006)", "molecules": {"B1": {"name": "ADD-1: basic helix-loop-helix leucine zipper transcription factor, expressed from a cotransfected, electroporated or retroviral vector (protein, UniProt P56720 1-1134, looked up)", "Sterol regulatory …": "MDELPFGEAALEQALAEVCEMDAALLTDIEDMLQLINNQDSDFPGLFDAPYAGGETGDTGPSSPGASSPESFSSPASLGSSLEAFLGGPKVTPAPLSPPPSAPTAVKMYPSVPPFSPGPGIKEEPVPLTILQPPAPQPSPGTLLPPSFPPPPVQLSPAPVLGYSSLPSGFSGTLPGNTQQTPSSLPLGSTPGISPTPLHTQVQSSAAQQPPPASAAPRMSTVASQIQQVPVVLQPHFIKADSLLLTAVKTDTGATMKTAGINTLAPGTAVQAGPLQTLVSGGTILATVPLVVDTDKLPIHRLAAGGKALGSAQSRGEKRTAHNAIEKRYRSSINDKIVELKDLVVGTEAKLNKSAVLRKAIDYIRFLQHSNQKLKQENLTLRSAHKSKSLKDLVSACGSGGGTDVSMEGMKPEVVETLTPPPSDAGSPSQSSPLSLGSRGSSSGGSDSEPDSPAFEDNQVKAQRLPSHSRGMLDRSRLALCVLVFLCLTCNPLASLFGWGILTPSDASGVHRSSGRSMLEAESRDGSNWTQWLLPPLVWLANGLLVLACLALLFVYGEPVTRPHSGPAVHFWRHRKQADLDLARGDFAQAAQQLWLALQALGRPLPTSNLDLACSLLWNLVRHLLQRLWVGRWLAGQAGGLQRDYRLRKDARASARDAAVVYHKLHQLHAMGKYTGGHLVASNLALSALNLAECAGDAISMATLAEIYVAAALRVKTSLPRALHFLTRFFLSSARQACLAQSGAVPLAMQWLCHPVGHRFFVDGDWAVHGAPQESLYSVAGNPVDPLAQVTRLFCEHLLERALNCIAQPSPGAADGDREFSDALGYLQLLNSCSDAVGAPACSFSVSSSMATTTGTDPVAKWWASLTAVVIHWLRRDEEAAERLYPLVEHIPQVLQETERPLPRAALYSFKAARALLDHRKVESSPASLAICEKASGYLRDSLASTSTASSIDKAMQLLLCDLLLVARTSLWRRQQSAASAQGAHGTSNGPQASALELRGFQHDLSSLRRLAQSFRPAMRRVFLHEATARLMAGASPARTHQLLDRSLRRRAGSSGKGGAAAELEPRPTWREHTEALLLASCYLPPAFLSAPGQRVSMLAEAARTVEKLGDHRLLLDCQQMLLRLGGGTTVTSS"}}, "key": {"hPPARγ3 promoter": {"test_system": "hPPARγ3 promoter", "experiment": "pGL3γ3p800 luciferase reporter cotransfection in Hep G2 cells", "format": "cell-based, human", "details": "E-box mutated", "source_text": "(§1) To assess whether ADD-1 regulates the expression of the hPPARγ3 mRNA, we cotransfected either an expression plasmid coding for ADD-1 together with the pGL3γ3p800 luciferase reporter vector. When Hep G2 cells were cotransfected with the ADD-1 expression vector, the luciferase activity was increased at least 4-fold relative to the basal activity of the hPPARγ3 promoter.\nA 800 bp fragment of the PAC clone 8856 was isolated by PCR using the amplimers LF-60 (binding to the antisense strand in exon A2) and LF-68 (binding sense at position −800 of the PPARγ3 promoter). This PCR fragment was sequenced, inserted into the EcoRV site of pBluescript SK+ (Stratagene, La Jolla, USA), and after SpeI and KpnI restriction subcloned into pGL3 (Promega, Madison, USA), creating the reporter vector pGL3γ3p800.\n(§2) Site-directed mutagenesis of the E-box in the PPARγ3 promoter was performed by splicing overlapping ends polymerase chain reaction (Ho, et al., Gene 77:51–59 (1989)), using the oligo pairs LF-106/LF-60 and LF-107/LF-68, to generate the plasmid pGL3γ3p800-E-boxmut. […]"}, "human PPARγ1 promoter": {"test_system": "human PPARγ1 promoter", "experiment": "pGL3γ1p3000 luciferase reporter cotransfection", "format": "cell-based", "details": "expression vector cotransfected", "source_text": "as §1\nTo isolate the PPARγ1 promoter, an 8-kb EcoRI fragment, which hybridized with the oligonucleotide LF-2 (corresponding to the 5′-UTR of γ1), was cloned into pBluescript. […] To test for promoter activity, a SacI/XhoI digestion of this clone containing the 3-kb promoter was inserted in the same sites of pGL3, resulting in the final vector pGL3 γ1p3000. The pSG5-haPPARγ (39) and pMSV-C/EBPβ (10) expression vectors were described elsewhere. Transfections were carried out in 60-mm plates using standard calcium phosphate precipitation techniques (for 3T3-L1, CV-1, and COS cells) (22). Luciferase and […] assays were carried out exactly as described previously (22).\nas §2"}, "human PPARγ2 promoter": {"test_system": "human PPARγ2 promoter", "experiment": "pGL3γ2p1000 luciferase reporter cotransfection", "format": "cell-based", "details": "expression vector cotransfected", "source_text": "as §1\nA 1-kb fragment of PAC clone 8856 was isolated by PCR using the oligonucleotides LF-35 (binding antisense in the PPARγ2 5′-UTR) and the oligonucleotide LF-58 (binding sense at position −1000 of the PPARγ2), was sequenced, and was inserted into EcoRV site of pBluescript (Stratagene, La Jolla, Calif.). After digestion of plasmid pBS γ2p1000 with SmaI and KpnI, the insert was cloned into the reporter vector pGL3 (Promega), creating the expression vector pGL3γ2p1000.\nas §2"}, "PPARγ mRNA [1]": {"test_system": "PPARγ mRNA", "experiment": "RNase protection assay of endogenous PPARγ mRNA in electroporated Hep G2 cells", "format": "cell-based, human", "details": "Hep G2 cells electroporated with expression vector; 48 hr after transfection", "source_text": "To investigate whether ADD-1/SREBP-1 expression was sufficient to regulate the expression of the endogeneous PPARγ3 mRNA, Hep G2 cells were electroporated with vectors expressing either SREBP-1a (Yokoyama et al., Cell 75:187–197 (1993)) or ADD-1 (Tontonoz et al., Mol. Cell. Biol. 13:4753–4759 (1993)). RNA was extracted 48 hr after transfection and analysed by RNase protection assay for the presence of PPARγ mRNA.\nThe absolute mRNA concentration of the differentially spliced PPARγ variants was measured by RNase protection assay exactly as described (Lemberger et al., J. Biol. Chem. 271:1764–1769 (1995)). The full lenght PPARγ2 coding region plus 33 bp of the 5′ UTR was amplified from human adipose tissue RNA by RT-PCR with the primer pair LF-3/LF-36 and was inserted in the inverted orientation (3′ to 5′ in front of the T7 promoter) into the EcoRI site of the expression vector pSG5 (Stratagene, La Jolla, Calif.). The resulting plasmid pSG5-hPPARγ2-inv was digested with EcoRV and religated, yielding the vector pSG5-hPPARγ2-RPA, which was used as a template for the synthesis of the anti-sense RNA probe, to measure the relative amounts of PPARγ2 relative to PPARγ1 and 3 mRNA. […]"}, "PPARγ mRNA [2]": {"test_system": "PPARγ mRNA", "experiment": "RNase protection assay of PPARγ mRNA in retrovirally infected 3T3-L1 cells", "format": "cell-based, mouse", "details": "3T3-L1 preadipocytes and adipocytes; retroviral ectopic expression", "description": "To study the effects of ADD-1 on PPARγ expression in more detail, either an empty retroviral vector pBabe or the same vector encoding for full length ADD-1 or the superactive ADD-1-403 form were introduced into 3T3-L1 cells via retroviral infection. […] Infected cells were then cultured to confluence and consecutively treated with differentiation medium. Total RNA was isolated at confluence (preadipocytes) and at day 6 after confluence (adipocytes) from the cells expressing either the empty pBabe vector or the same vector encoding for ADD-1 or ADD-1-403, a truncated form of ADD-1, equivalent to the proteolytically activated protein, which lacks the membrane anchoring domain. […] The effect of retroviral infection was more pronounced in 3T3-L1 adipocytes relative to preadipocytes.\nControl cells received vehicle only.\nThe absolute mRNA concentration of the differentially spliced PPARγ variants was measured by RNase protection assay exactly as described (Lemberger et al., J. Biol. Chem. 271:1764–1769 (1995)). The full lenght PPARγ2 coding region plus 33 bp of the 5′ UTR was amplified from human adipose tissue RNA by RT-PCR with the primer pair LF-3/LF-36 and was inserted in the inverted orientation (3′ to 5′ in front of the T7 promoter) into the EcoRI site of the expression vector pSG5 (Stratagene, La Jolla, Calif.). […]"}}, "data": [{"molecule": "B1", "values": [{"measurement": "stimulation of mutated pGL3γ3p800-E-boxmut reporter vector", "setting": "hPPARγ3 promoter", "result": "unable to stimulate"}, {"measurement": "activity of pGL3γ1p3000 reporter construct", "setting": "human PPARγ1 promoter", "result": "unaffected"}, {"measurement": "activity of pGL3γ2p1000 reporter construct", "setting": "human PPARγ2 promoter", "result": "unaffected"}, {"measurement": "PPARγ1 mRNA increase", "setting": "PPARγ mRNA [1]", "result": "approximately 3 fold"}, {"measurement": "expression of PPARγ mRNA", "setting": "PPARγ mRNA [2]", "result": "induced"}]}]}
